Reference: the nanobody polyreactivity screen of Harvey et al. (2022)

assay: yeast display, Sf9 membrane polyspecificity reagent, FACS + sequencing; frameworks hold sequencing errors
Method in brief: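 A synthetic nanobody library was expressed on Saccharomyces cerevisiae BJ5465 by galactose induction for 36–48 hours. The library was stained for 1 hour at 4 °C with 10% biotinylated, detergent-solubilized Sf9 membrane reagent and enriched with streptavidin microbeads before FACS. Low and high (top ~1%) gates were set on anti-HA fluorescence for expression and streptavidin fluorescence for reagent binding, and each polyreactivity label reflects the gate of origin.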

Row | Sequence | polyreactivity (PSR sort gate)
1 | QVQLVESGGGLVQAGGSLRLSCAASGFNFVRYAMGWYRQAPRKERELVAAITRRGGSTHYADSVKGRFTISRDNAKNTVYLQMNSLKPEDTAVYYCGAGRQYYYLDRFPRVQGDYWGQATQVTVSS | high polyreactivity
2 | QVQLVESGGGLVQAGGSLRLSCAASGFNFWRYAMGWYRQAPGKERELVASITSTGGSTYYADSVKGRFTISRDNAKNTVYLQMNSLKPEDTAVYYCAADTFVWADWSWHYYWGQGTQVTVSS | high polyreactivity
3 | QVQLVESGGGLVQAGGSLRLSCAASGFNFWRYAMGWYRQAPGKERELVAVITWSGTRTYYADSVKGRFTISRDNAKNTVYLQMNSLKPEDTAVYYCAALYYGFRLTYGYDYWGQGTQVTVSS | high polyreactivity
4 | QVQLVESGGGLVQAGGSLRLSCAASGFNIYNNAMAWYRQAPGKERELVAAITSNGGRTYYADSVKGRFTISRDNAKNTFYLQMNSLKPEDTAVYYCAVDLYVWNVHYYYWGQGTQVTVSS | high polyreactivity
5 | QVQLVESGGGLVQAGGSLRLSCAASGFNLRRNAMGWYRQAPGKERELVAAITSSGGRTTYADSVKGRFTISRDNAKNTVYLQMNSLKPEDTAVYYCAADFHVDYDYWGQGTQVTVSS | high polyreactivity
6 | QVQLVESGGGLVQAGGSLRLSCAASGFSFLAYAMGWYRQAPGKERELVAAINSSDGTTHYADSVKGRFTISRDNAKNTVYLQMNSLKPEDTAVYYCAVSQVRTGEGYHYWGQGTQVTVSS | low polyreactivity
7 | QVQLVESGGGLVQAGGSLRLSCAASGFSFWSNDMGWSRQAPGKEREFVAAITTSGGNTYYADSVKGRFTISRDNAKNTVYLQMQSLKPEDTAVYYCAAEEGSTDATGYDYWGEGTQVTVSS | low polyreactivity
8 | QVQLVESGGGLVQAGGSLRLSCAASGFSVPLYTMGWYRQAPGKERELVAAISVTGGSTYYADSVKGRFTISRDNAQNTVYLPMNSLKPEDTAVYYCNAYLFFLNRVWSFDYWGQGTQVTVSS | low polyreactivity
9 | QVQLVESGGGLVQAGGSLRLSCAASGFTCYIYAMGWYRQAPGKERELVAGITSGGTNYADSVKGRFTISRDNAKNTVYLQINSLKPEDTAVYYCATDYYDDVTIGYDYWGQGTQVTFSS | low polyreactivity
10 | QVQLVESGGGLVQAGGSLRLSCAASGFTFAFYTMGWYRQAPGKERELVAGITRSGTNTYYADSVKGRFTISRDNAKNTVYLQMNSLKPEDTAVYYCAAAIRPGMDYWGQGTQVTVSS | high polyreactivity
11 | QVQLVESGGGLVQAGGSLRLSCAASGFTFAKYAMGWYRQAPGKERELVAAISSNGGTTYYADSVKGRFTISRDNAKNTDYLQMNSLKPEDTALYYCAAYTYRRPSTFTKVAFDYWGQGSQVTVSS | high polyreactivity
12 | QVQLVESGGGLVQAGGSLRLSCAASGFTFALYAMGWYRQAPGKERELVAAITKGGGSTYYADSVKGRFTISRDNAKITVYLQMNSLKPEDTAVYYCAARGRYSAPDYGYWGQGTQVTVSS | high polyreactivity
13 | QVQLVESGGGLVQAGGSLRLSCAASGFTFARNAMGWYRQAPGKERELVAGITSRGSSTSYADSVKGRFTISRDNAKNTVYLQMNSLKPEDTAVYYCAAVPRYRDRGQYGYWGQGTQVTVSS | high polyreactivity
14 | QVQLVESGGGLVQAGGSLRLSCAASGFTFARYAMGWYRQAPGKERELVAAITSGSSTYYADSVKGRFTISRDNAKNTVYLQMNSLKPEDTAVYYCAARSFLQSYYYWGQGTQVTVSS | high polyreactivity
15 | QVQLVESGGGLVQAGGSLRLSCAASGFTFASNDMGWYIPAPGKERELVSAITKGGGRTYYADSVKGRFTISRDNAKNTVYLQMNSLKPEDTAVYYCAASHDKRRQYFVGQSAFDYWGQGTQVTVSS | low polyreactivity
16 | QVQLVESGGGLVQAGGSLRLSCAASGFTFASYVMGWYRQAPGKERELVAAISYSGGYTYYADSVKGRFTISRDNAKNTVYLQMNSLKPEDTAVYYCNARYLQGYSGRYGYWGQGTQVTVSS | high polyreactivity
17 | QVQLVESGGGLVQAGGSLRLSCAASGFTFAVYAMGWYRQAPGKERELVAAISDSGGSTYYADSVKGRFTISRDNAKNTVYLQMNSLKPEDTAVYYCNRDWIVSGYYAYYEFDYWGQGTQVTVSS | low polyreactivity
18 | QVQLVESGGGLVQAGGSLRLSCAASGFTFAVYVMGWYRQAPGKERELVATISFSVGSTYYADSVKGRFTISRDNAKNTVYLQMNSLKPEDTAVYDCNADPPPEYYPDKDNYWGQGTQVTVSS | low polyreactivity
19 | QVQLVESGGGLVQAGGSLRLSCAASGFTFAWYAMGWYRQAPGKERELVAAINWSGGRTYYADSVKGRFTISRDNAKNTVYLQMNSLKPEDTAVYYCAAPHLVKRSEFDYWGQGTQVTVSS | high polyreactivity
20 | QVQLVESGGGLVQAGGSLRLSCAASGFTFAYYAMGWYRQAPGKERELVAAITGSGGRTYYADSVKGRFTISRDNAKNTVYLQMNSLKPEDTAVYYCAALTGPYKAQVHGGHTPLDYWGQGTQVTVSS | low polyreactivity
21 | QVQLVESGGGLVQAGGSLRLSCAASGFTFCRNTMGWYRQAPGKEREFVAAIDWSGGSTTYADSVKGRFTISRDNAKNTVYLQMNSLKPEDTAVYYCAADERRRHYWWGQESDYWGQGTQVNVSS | low polyreactivity
22 | QVQLVESGGGLVQAGGSLRLSCAASGFTFDAYTMGWYREAPGKERELVAAINWSGDTTYYADSVKGRFTISRDNAMNTVYLQMNSLKPEDTAVYYCAAVWLNYGVWFDYWGQGTQVTVSS | high polyreactivity

Row | Sequence | polyreactivity (PSR sort gate)
23 | QVQLVESGGGLVQAGGSLRLSCAASGFTFDDYDMGWYRQAPGKERELVAAISWSGGSTYYADSVKGRFTFSRDNAKNTVYLQMNSLKPEDSAVYYCAAERSYGGFDYWGQGTQVTVSS | low polyreactivity
24 | QVQLVESGGGLVQAGGSLRLSCAASGFTFDENAMGWYRQAPGINYSGASTYYADSVKGRFTISRDNAKNTVYFQMNSLKPEDTAVYYCAAEVVAQMNYWGQGTQVTVSS | low polyreactivity
25 | QVQLVESGGGLVQAGGSLRLSCAASGFTFDFYAMGWYRQAPGKERELVAAINWSGSSTYYADSVKGRFTISRDNAKNTVYLQMNSLKPEDTAVYYCAAQVYYTLFPDVYTMYYWGQGTQVTVSS | high polyreactivity
26 | QVQLVESGGGLVQAGGSLRLSCAASGFTFDFYVMGWYRQAPGKERELVAAITSGGGTYYADSVKGRFTISRDNAKNTVYLQMNSLKPEDTAVYYCAVSVTTVSTYDYWGQGTQVTVSS | low polyreactivity
27 | QVQLVESGGGLVQAGGSLRLSCAASGFTFDKNAMGWYRQAPGKERELVAAINIGSTYYADSVKGRFTISRDNAKNTVYLQMNSLKPEDSAVYYCAKEVPSGYWVNYYYWGQGTQVTVSS | low polyreactivity
28 | QVQLVESGGGLVQAGGSLRLSCAASGFTFDSYAMGWYRQAPGKERELVAAITSDGSTYYADSVKGRFTISRDNAKNSVYLQMNSLKPEDTAVYYCAADGISLYATAYDFWGQGTQVTVSS | low polyreactivity
29 | QVQLVESGGGLVQAGGSLRLSCAASGFTFDSYAMGWYRQAPGKERELVAAITSDGSTYYADSVKGRFTISRDNAKNTVYLQMNSLKPEDTAVYYCAADGRYFRAVFRLYDYWGQGTQVTVSS | low polyreactivity
30 | QVQLVESGGGLVQAGGSLRLSCAASGFTFDSYAMGWYRQAPGTERELVASISSSGSTNYADSVKGRFTISRDNAKNTVYLQMNSLKPEDTAVYYCAAESRYPFIYEYWGQGTQVTVSS | low polyreactivity
31 | QVQLVESGGGLVQAGGSLRLSCAASGFTFDYNAMGWYRQAPGKERELVASIDQSGGSTYYADSVKGRFTISRDNAKNTVYLQMNSLKPEDTAVYYCAAEGYYTSTYDLYDYYYWGQGTQVTVSS | low polyreactivity
32 | QVQLVESGGGLVQAGGSLRLSCAASGFTFDYYDMGWYRQAPGKERELVAGITYSGGRTRYADSVKGRFTISRDNAKNTVYLQMNSLKPEDTAVYYCAARPGYPYRMNYWGQGTQVTVSS | low polyreactivity
33 | QVQLVESGGGLVQAGGSLRLSCAASGFTFDYYTMGWYRQAPGKEREFVAAITWNGGSTYYADSVKGRFTISRYNAKNTVYLQMNSLKPEDSAVYYCAADTTYGINRREYWGQGTQVTVSS | low polyreactivity
34 | QVQLVESGGGLVQAGGSLRLSCAASGFTFEFNVMGWYRQAPGKERELVASIRWGSTSYADSVKGRFTISRDNAKNTVYLQMNSLKPEDTAVYYCAADRSTGLGDDDYWGQGTQVTVSS | low polyreactivity
35 | QVQLVESGGGLVQAGGSLRLSCAASGFTFEGYAMGWYRQAPGKERDLVAAISSNGGRTYYADSVKGRFTISRDNAKNPVYLQMNSLKPEDTAVYYCNADGYGDYSFLKYRFEYDYWGQGTQVTVSS | low polyreactivity
36 | QVQLVESGGGLVQAGGSLRLSCAASGFTFEKYAMGWYRQAPGHERELVASISWSGGRTRYADSVKGRFTISRDNAKNTVYLQMNSLTPEDTAVDYCAASYRYFGRSTVRYDYWGQGTQVTVSS | high polyreactivity
37 | QVQLVESGGGLVQAGGSLRLSCAASGFTFEKYAMGWYRQAPGKERELVAAITQSAGSTYADSVKGRFTISRDNAKNTVYLQMNSLKPVDTAVYYCAARYRYPYYARYGYWGQGTQVTVSS | high polyreactivity
38 | QVQLVESGGGLVQAGGSLRLSCAASGFTFEKYVMGWYIQAPGKETEFVAAITRSGGRTYYADSVKGRFTISRDNAKNTVYLQMNSLKPEDTAVYSCNAVTSWAGSLDYWGQGTQVTVSS | high polyreactivity
39 | QVQLVESGGGLVQAGGSLRLSCAASGFTFERNTMGWYRQAPGKERELVATITRRGTSTYYADSVKGRFTISRDNAKNTVYLQMNSLKPEDTAVYYCARGQYSHRSQAGMDYWGQGTQVTVSS | high polyreactivity
40 | QVQLVESGGGLVQAGGSLRLSCAASGFTFERYAMGWYRQAPGKERELVAAIDWRGVNTYYADSVKGRFTISRDNAKNTVYLQMNSLKPEDTAVYYCNARAYGRYYWGQGTQVTVSS | high polyreactivity
41 | QVQLVESGGGLVQAGGSLRLSCAASGFTFESNAIGWYRQAPGKERELVAAISSSGGSTYYADSVKGRFTISRDNAKNTVYLQMNSLKPEDTAVYYCNAYSLYYGGYDYWGQGTQVTVSS | high polyreactivity
42 | QVQLVESGGGLVQAGGSLRLSCAASGFTFESYAMGWYRQAPGKERELVAAISWNGGSSYYADSVKGRFTISRDNAKNTVYLQMNSLKPEDTAVYYCAARGRAPRFRRIGYDYWGQGTQVSVSS | high polyreactivity
43 | QVQLVESGGGLVQAGGSLRLSCAASGFTFESYAMGWYRQAPGKERELVAAISWNGGSTYYADSVKGRFTISRDNAKNTVYLQMNSLKPEDTAVYYCAARGRAPRFRRIGYDYWGQGTQVTVSS | high polyreactivity
